According to patent US6887705B1, “Tyrosine phosphorylated cleavage furrow-associated proteins (PSTPIPs)” (Genentech, Inc., priority 1997, dated 2005):

T1: PTP HSCF (Mus musculus, UniProt Q61152)
T1 construct: the PST (and C-terminal homolog) of PTP HSCF (amino acids 304-453); made in house; host or cells: E. coli DH5-alpha
T1 sequence (Q61152 304-453): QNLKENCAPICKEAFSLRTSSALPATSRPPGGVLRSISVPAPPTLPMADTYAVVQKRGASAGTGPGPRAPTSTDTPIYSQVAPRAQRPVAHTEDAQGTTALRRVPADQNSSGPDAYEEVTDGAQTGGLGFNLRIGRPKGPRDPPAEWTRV

B1: wild type PTP HSCF: PEST-type protein tyrosine phosphatase PTP HSCF, wild type (protein)
chain: MSRHTDLVRSFLEQLEARDYREGAILAREFSDIKARSVAWKSEGVCSTKAGSRLGNTNKNRYKDVVAYDETRVILSLLQEEGHGDYINANFIRGIDGSQAYIATQGPLPHTLLDFWRLVWEFGVKVILMACQETENGRRKCERYWAREQEPLKAGPFCITLTKETTLNADITLRTLQVTFQKEFRSVHQLQYMSWPDHGVPSSSDHILTMVEEARCLQGLGPGPLCVHCSAGCGRTGVLCAVDYVRQLLLTQTIPPNFSLFQVVLEMRKQRPAAVQTEEQYRFLYHTVAQLFSRTLQDTSPHYQNLKENCAPICKEAFSLRTSSALPATSRPPGGVLRSISVPAPPTLPMADTYAVVQKRGASAGTGPGPRAPTSTDTPIYSQVAPRAQRPVAHTEDAQGTTALRRVPADQNSSGPDAYEEVTDGAQTGGLGFNLRIGRPKGPRDPPAEWTRV
modifications: left off: small tags and cut ends
B2: D197-A: dominant negative PTP HSCF, active site aspartate mutated to alanine (protein, UniProt Q99952 1-460, looked up, variant D197A)
Tyrosine-protein phosphatase …: MSRSLDSARSFLERLEARGGREGAVLAGEFSDIQACSAAWKADGVCSTVAGSRPENVRKNRYKDVLPYDQTRVILSLLQEEGHSDYINGNFIRGVDGSLAYIATQGPLPHTLLDFWRLVWEFGVKVILMACREIENGRKRCERYWAQEQEPLQTGLFCITLIKEKWLNEDIMLRTLKVTFQKESRSVYQLQYMSWPARGVPSSPDHMLAMVEEARRLQGSGPEPLCVHCSAGCGRTGVLCTVDYVRQLLLTQMIPPDFSLFDVVLKMRKQRPAAVQTEEQYRFLYHTVAQMFCSTLQNASPHYQNIKENCAPLYDDALFLRTPQALLAIPRPPGGVLRSISVPGSPGHAMADTYAVVQKRGAPAGAGSGTQTGTGTGTGARSAEEAPLYSKVTPRAQRPGAHAEDARGTLPGRVPADQSPAGSGAYEDVAGGAQTGGLGFNLRIGRPKGPRDPPAEWTRV
B3: delta 25: PST PIP missing the N-terminal 25 amino acids (protein)
chain: LQRLLDGRKMCKDVEELLRQRAQAEERYGKELVQIARKAGGQTEMNSLRTSFDSLKQQTENVGSAHIQLALALREELRSLEEFRERQKEQRKKYEAIMDRVQKSKLSLYKKTMESKKAYDQKCRDADDAEQAFERVSANGHQKQVEKSQNKAKQCKESATEAERVYRQNIEQLERARTEWEQEHRTTCEAFQLQEFDRLTILRNALWVHCNQLSMQCVKDDELYEEVRLTLEGCDVEGDINGFIQSKSTGREPPAPVPYQNYYDREVTPLIGSPSIQPSCGVIKRFSGLLHGSPKTTPSAPAASTETLTPTPERNELVYASIEVQATQGNLNSSAQDYRALYDYTAQNSDELDISAGDILAVILEGEDGWWTVERNGQRGFVPGSYLEKLDYKDDDDK
B4: delta 50: PST PIP missing the N-terminal 50 amino acids (protein)
chain: ERYGKELVQIARKAGGQTEMNSLRTSFDSLKQQTENVGSAHIQLALALREELRSLEEFRERQKEQRKKYEAIMDRVQKSKLSLYKKTMESKKAYDQKCRDADDAEQAFERVSANGHQKQVEKSQNKAKQCKESATEAERVYRQNIEQLERARTEWEQEHRTTCEAFQLQEFDRLTILRNALWVHCNQLSMQCVKDDELYEEVRLTLEGCDVEGDINGFIQSKSTGREPPAPVPYQNYYDREVTPLIGSPSIQPSCGVIKRFSGLLHGSPKTTPSAPAASTETLTPTPERNELVYASIEVQATQGNLNSSAQDYRALYDYTAQNSDELDISAGDILAVILEGEDGWWTVERNGQRGFVPGSYLEKLDYKDDDDK
B5: delta 75: PST PIP missing the N-terminal 75 amino acids (protein)
chain: SFDSLKQQTENVGSAHIQLALALREELRSLEEFRERQKEQRKKYEAIMDRVQKSKLSLYKKTMESKKAYDQKCRDADDAEQAFERVSANGHQKQVEKSQNKAKQCKESATEAERVYRQNIEQLERARTEWEQEHRTTCEAFQLQEFDRLTILRNALWVHCNQLSMQCVKDDELYEEVRLTLEGCDVEGDINGFIQSKSTGREPPAPVPYQNYYDREVTPLIGSPSIQPSCGVIKRFSGLLHGSPKTTPSAPAASTETLTPTPERNELVYASIEVQATQGNLNSSAQDYRALYDYTAQNSDELDISAGDILAVILEGEDGWWTVERNGQRGFVPGSYLEKLDYKDDDDK

What was measured:
[1] = system: PSTPIP tyrosine phosphorylation; test: Tyrosine phosphorylation of PSTPIP in COS cells co-transfected with V-src; assay type: cell-based; settings: COS cells expressing PSTPIP and V-src
Protocol: Baf3 cells were lysed in 1% Triton, 50 mM HEPES. 10% glycerol and 5 mM EDTA containing 1 μg/ml aprotinin, PMSF, leupeptin and pepstatin were 1 mM Sodium Vanadate and 10 mM Iodoacetic acid. Cells were treated with 0.1 mM Pervanadate for 4 hours before lysis. Immunoprecipitations were performed in the vanadate-containing lysis buffer using 1 μg/ml anti-PSTPIP polyclonal antibody and 400 μg of lysate protein at 4° C. overnight. Western blots were performed using 1 μg/ml affinity purified anti-PSTPIP or 1:5000 dilution of commercial 4G10 anti-phosphotyrosine monoclonal (Upstate Biotech). Signal was detected by HRPO-ECL reagents (Pierce). The C221-S mutant was as previously described (Cheng et al., (1996) supra). The PTP HSCF D197-A mutant was generated using PCR. Mutagenesis primer D197A.F ([…]) (SEQ ID NO:24), corresponding to nucleotide 591, and primer D197A.R ([…]) (SEQ ID NO:25) which corresponds to the stop codon, were used in PCR to generate a fragment that could be cut with Mscl and XbaI. pRK.HA.38 WT, a plasmid which encoded the wild type enzyme under the control of the cytomegalovirus promoter (Cheng et al., (1996) supra), was digested with Clal and Mscl and the resulting 600 bp fragment was ligated with the Mscl-Xbal PCR fragment into the Clal and Xbal sites of the pRK.tkneo. A plasmid encoding the V-src oncogene under the control of the SV40 early promoter was the kind gift of Dr. Art Levinson (CEO-Genetech, Inc.). NIH 3T3 cells and the COS-7 cells were cultured in high glucose DMEM supplemented with 10% FBS, 2 mM L-Glutamine, 10 mM HEPES pH 7.2 and pen-strep.
COS-7 cells were transfected by electroporation. Briefly, 1.5×10^6 COS-7 cells were mixed with 24 μg total DNA in PBS and electroporated at 960 μF, […] (Bio-Rad™ Gene Pulsar™). Following electroporation, cells were seeded in 10 cm dishes and incubated for 3 days. 10-cm dishes of transfected COS cells were washed twice with ice-cold PBS, and lysed in 1 ml of M-RIPA (50 mM Tris 7.4, 1% NP40, 0.25% DOC, 150 mM NaCl, 1 mM sodium ortho-vanadate, 1 mM NaF plus Complete™ Protease Inhibitors (Boehringer Mannheim)). Lysates were incubated for 15 minutes with 100 μl UltraLink Immobilized Protein A/G™ (Pierce) at 4° C., followed by centrifugation for 5 minutes. Supernatants were collected and stored at −70° C. or directly immunoprecipitated. 5 μg of M2 or 12CA5 was added to 500 μl of lysate and incubated overnight at 4° C. Ultralink Protein A/G™ was added and incubation continued for 2 hours at 4° C. The immune complexes were washed 3 times with M-RIPA. The proteins were subjected to SDS-PAGE and transferred to nitrocellulose in 1X Transfer Buffer™ (Novex). Immunoblots were blocked overnight at 4° C. in 3% milk/PBS. To detect Flag-tagged PIP, blots were incubated with 10 μg/ml Bio-M2 (Biotinylated anti-FLAG monoclonal Ab, KODAK) followed by incubation in 10 μg/ml streptavidin-HRP (UBI). To detect HA-tagged PTPhscf, blots were incubated in anti-(HA)-peroxidase (Boehringer Mannheim) as per manufacturer's instructions. To detect phosphotyrosine, blots were incubated in HRP-conjugated 4G10 (anti-phosphotyrosine monoclonal, UBI) as per manufacture's instructions.
COS cells were transfected with a constant amount of either the wild type of W232A mutant of PST PIP and cotransfected with increasing amounts of a plasmid encoding the v-Src tyrosine kinase (Spencer et al, (1997), supra). Plasmid concentrations were equalized with an empty vector containing the CMV promoter. After 48 hours, lysates were prepare and immunoprecipitated with anti-FLAG monoclonal antibody. Precipitates were run on SDS polyacrylamide gels, blotted, and probed with either anti-FLAG antibody or anti-phosphotyrosine antibody as previously described (Spencer et al, (1997), supra). Bound antibodies were visualized using enhanced chemiluminescent reagents.

CHO cells = test: Confocal microscopy of PST PIP forms expressed in CHO cells; assay type: cell-based, Chinese hamster; settings: transfected CHO cells
Protocol: Confocal microscopy was performed as previously described (Spencer et al, (1997), supra). Briefly, CHO cells in chamber slides were transfected using Lipofectamine and the indicated plasmids. 48 hours later, cells were fixed in formaldehyde and stained with an anti-FLAG epitope specific antibody (Kodak) and Fluorescein-Phalloidin (Molecular Probes). Anti-Flag stained cells were washed and stained with Cy3-conjugated sheep anti-mouse IgG. Stained cells were observed using Molecular Dynamics Confocal Microscope™ (2001) and analyzed with ImageSpace™ software (Molecular Dynamics).

PTP HSCF = biological target: T1, PTP HSCF; test: In vitro GST pull-down binding of PST PIP forms to PTP HSCF; settings: in vitro
Protocol: The binding was carried out according to the method of Wong and Johnson (Wong et al., J. Biol. Chem. 271(35):20981-20984 (1996)). Briefly, 1 μg of plasmid with either the PSTPIP protein or PTP HSCF under the control of the Sp6 promoter was in vitro transcribed/translated using the Promega™ TnT Rabbit Reticulocyte™ system. Samples were diluted in 50 mM HEPES, pH 7.2, 1% triton X 100, 10% glycerol, 100 mM NaCl, 5 mM EDTA and 2 μg/ml each of leupeptin, pepstatin, aprotinin, and PMSF. […] This was reacted for 1 hour at 4° C. and then the resin washed 6 times in HEPES/Triton binding buffer before SDS gel electrophoresis. The peptides were synthesized on an automated Milligen 9050 Peptide Synthesizer using standard solid phase chemistry with FMOC protected amino acids on a p-alkoxybenzyl alcohol resin. Dried peptides were re-suspended in the HEPES/Triton Binding buffer at a concentration of 10 mg/ml. Peptide inhibition was performed by adding the peptide first to the in vitro translation product and then the GST-fusion followed by the GSH-Sepharose. The binding/washing steps were as previously described. The peptides synthesized and the PTPs they were derived from were: • PXXP-HSCF: 432[…]451 (PTP HSCF) (SEQ ID NO:20), • PXXP-PEP: 782GFGNRFSKPKGPRNPPSAW800 (PTP PEP) (SEQ ID NO:21), • PXXP-PEST: 761[…]780 (PTP PEST) SEQ ID NO:22), • PXXP-CONTROL: 334[…]353 (PTP HSCF) (SEQ ID NO:23).
In vitro binding analyses between various PTP HSCF and PST PIP constructs were performed as previously described (Spencer et al, (1997), supra). Briefly, plasmids were transcribed and translated in vitro using the TnT Rabbit Reticulocyte Lysate System (Promega). Samples were diluted in 50 mM HEPES, pH 7.2, 1% triton X-100, 10% glycerol, 100 mM NaCl, and 2 μg/ml each of leupeptin, pepstatin, aprotinin and PMSF (lysis buffer). Samples were than reacted with GST fusion proteins at various concentrations, and the bound proteins were centrifuged using glutathione-sepharose beads and analyzed on SDS polyacrylamide gels. C-terminally-derived peptide inhibition studies were performed by incubating the GST fusion protein binding reactions in the presence of 10 μg/ml of the indicated peptides. Peptides were produced by FMOC-protected amino acids as previously described (Spencer et al, (1997), supra). In vivo interactions between various forms of PTP HSCF and PST PIP were also performed as previously described (Spencer et al, (1997), supra). Briefly, COS cells were transfected with various constructs, and after 48 hours, lysates were prepared and immunoprecipitated with antibodies to either the FLAG epitope contained at the C-terminus of PST PIP or an HA epitope contained at the N-terminus of PTP HSCF. The resultant blots were probed with anti-FLAG to detect PST PIP, anti-HA to detect PTP HSCF or anti-phosphotyrosine to detect levels of this modified amino acid in each protein.

Row | Molecule | level of tyrosine phosphate on PSTPIP on cotransfection of PTP HSCF forms [1] | cellular localization of PST PIP forms (assay for correct folding) (CHO cells) | binding of in vitro translated PST PIP forms to GST fusion of C-terminal 149 amino acids of PTP HSCF (PTP HSCF)
1 | B1 | decreased level of tyrosine phosphate | – | –
2 | B2 | slightly more efficient dominant negative protein | – | –
3 | B3 | – | predominantly co-localized with the cortical actin cytoskeleton | capable of interacting
4 | B4 | – | formed large aggregates within the cytoplasm | –
5 | B5 | – | formed large aggregates within the cytoplasm | –
